Values of other authors in PMC3670934.

Tests used:
[1] = target: CCL26 (Homo sapiens) (UniProt Q9Y258)
[2] = target: CCL11 (Homo sapiens) (UniProt P51671)
[3] = target: CCL24 (Homo sapiens) (UniProt O00175)
Chain of CCL24 (Homo sapiens) (O00175 27-119): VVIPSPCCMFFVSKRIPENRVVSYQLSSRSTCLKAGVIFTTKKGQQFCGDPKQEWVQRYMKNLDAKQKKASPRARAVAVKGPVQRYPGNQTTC

Chain of CCR3 (P51677 whole entry): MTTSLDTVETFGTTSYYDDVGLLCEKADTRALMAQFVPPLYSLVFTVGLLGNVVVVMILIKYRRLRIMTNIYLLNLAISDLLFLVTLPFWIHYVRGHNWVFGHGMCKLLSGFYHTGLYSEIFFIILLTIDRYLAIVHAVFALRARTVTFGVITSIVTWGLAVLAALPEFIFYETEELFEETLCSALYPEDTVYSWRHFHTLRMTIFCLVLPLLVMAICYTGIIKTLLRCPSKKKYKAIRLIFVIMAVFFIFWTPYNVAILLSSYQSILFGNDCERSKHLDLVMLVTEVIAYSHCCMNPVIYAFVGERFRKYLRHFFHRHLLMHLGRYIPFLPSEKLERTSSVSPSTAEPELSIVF
Chain of CCL11 (Homo sapiens) (P51671 24-97): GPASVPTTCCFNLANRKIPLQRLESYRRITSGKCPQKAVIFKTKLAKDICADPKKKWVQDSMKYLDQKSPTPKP
Chain of CCL26 (Homo sapiens) (Q9Y258 24-94): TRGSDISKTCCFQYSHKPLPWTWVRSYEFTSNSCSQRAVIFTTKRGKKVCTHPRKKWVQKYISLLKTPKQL

## CCR3 (from UniProt P51677)
[1]
  Kd: 0.9 nM
[2]
  Kd: 0.52 nM
[3]
  Kd: 0.6 nM
